Experimental findings from paper doi:10.1101/2025.09.05.674523 (bioRxiv, 2025) are described below.

Test in all cases: AlphaScreen or HTRF
For experiment [1], the target named is full-length recombinant mouse EPPIN (mEPPIN; L24-T134) (mouse) (UniProt Q9DA01).
The target in experiment [2] is mEPPIN^L24-K68 (mouse) (UniProt Q9DA01).
The target of experiment [3] is T1, full-length recombinant mouse EPPIN (mEPPIN; L24-T134) (mouse, UniProt Q9DA01 24-134).
T1 sequence (looked up): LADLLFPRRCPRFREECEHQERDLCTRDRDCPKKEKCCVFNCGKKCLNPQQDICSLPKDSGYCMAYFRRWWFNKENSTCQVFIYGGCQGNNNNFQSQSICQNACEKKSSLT

Experiment [4] deals with full-length recombinant mouse SEMG1 (mSEMG1; Q32-G375) (mouse).

On to “full-length recombinant mouse SEMG1 (mSEMG1; Q32-G375) (natural protein)”, for which, in experiment [1], the EC50 was 23.6 nM. The molecule further came in with a reduction in the specific signal compared to full-length EPPIN in experiment [2] of 75%.

B1: recombinant human SEMG1 (hSEMG1, G26-R281) (domain or fragment, UniProt P04279 26-281, looked up)
chain: GGSKGRLPSEFSQFPHGQKGQHYSGQKGKQQTESKGSFSIQYTYHVDANDHDQSRKSQQYDLNALHKTTKSQRHLGGSQQLLHNKQEGRDHDKSKGHFHRVVIHHKGGKAHRGTQNPSQDQGNSPSGKGISSQYSNTEERLWVHGLSKEQTSVSGAQKGRKQGGSQSSYVLQTEELVANKQQRETKNSHQNKGHYQNVVEVREEHSSKVQTSLCPAHQDKLQHGSKDIFSTQDELLVYNKNQHQTKNLNQDQQHGR
Take B1: the EC50 in experiment [3] amounted to 8.3 nM.

B2: full-length recombinant mouse EPPIN (mEPPIN; L24-T134) (natural protein)
chain: LADLLFPRRCPRFREECEHQERDLCTRDRDCPKKEKCCVFNCGKKCLNPQQDICSLPKDSGYCMAYFRRWWFNKENSTCQVFIYGGCQGNNNNFQSQSICQNACEKKSSLT
B2: the EC50 in experiment [4] was 1 nM.
